Data taken from patent US20070110756A1, “Method for modulating P53 activity via methylation” (priority 2005, published 2007).

T1: Set9 construct composed of residues 52-366 (UniProt Q8WTS6 52-366)
T1 sequence (looked up): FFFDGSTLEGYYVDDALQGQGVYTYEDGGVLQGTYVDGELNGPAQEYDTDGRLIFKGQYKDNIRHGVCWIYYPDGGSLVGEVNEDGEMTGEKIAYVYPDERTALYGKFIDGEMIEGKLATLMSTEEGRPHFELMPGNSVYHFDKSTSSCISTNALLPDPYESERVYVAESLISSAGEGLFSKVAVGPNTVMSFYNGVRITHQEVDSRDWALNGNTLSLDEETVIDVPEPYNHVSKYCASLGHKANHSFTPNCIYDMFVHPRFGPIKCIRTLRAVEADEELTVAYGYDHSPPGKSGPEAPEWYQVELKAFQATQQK

B1: 5′-gat ccg cac ctg gac gat gac gga tta cct tcc tgt caG TAATCCGTCATCGTCCAGGTG Ctt ttt g-3′ (nucleic acid)
chain: GATCCGCACCTGGACGATGACGGATTACCTTCCTGTCAGTAATCCGTCATCGTCCAGGTGCTTTTTG
modifications: expressed or natural sequence
notes: stem-loop siRNA targeting SET9, expressed from lentiviral pLSL-GFP vector

How the values were obtained:
[1] = tested on: methylated Lys372-p53 in 293F cells; test: immunoprecipitation with anti-p53-Lys372me and p53 western blot in 293F cells; type: cell-based; conditions: Adr-treated vs untreated
Procedure: The in vivo methylation of p53 at lysine 372 under conditions in which the intracellular concentration of Set9 was unaltered was also determined. 293F cells were treated with adriamycine (Adr), an agent that induces DNA damage resulting in the activation of a p53-responsive pathway. Cell extracts prepared from untreated and Adr-treated cells were then compared for total amounts of p53 protein using monoclonal p53 antibody. […] Both extracts were also subjected to immunoprecipitation with anti-p53-Lys372me antibodies followed by western blot analysis with p53-specific antibody.

[2] = tested on: methylated p53 bound to the p21 promoter in U2OS cells; test: ChIP assay of methylated p53 at the p21 promoter; type: cell-based; conditions: 0.5 μM of Adr, time course
Procedure: U2OS and USOS Set9 siRNA cells were treated with 0.5 μM of Adr and collected at the indicated time points for a CHIP assay performed using anti-p53-Lys372me antibody. The amounts of precipitated p21 promoter were determined by quantitative RT-PCR.
It was observed that p53 methylation likely precedes acetylation. Therefore, it was expected that p53 methylation must occur at very early times after DNA damage. […] At the indicated time periods, cells were harvested, and DNA-protein complexes were cross-linked and subjected to chromatin immunoprecipitation (ChIP) analysis, initially using anti-p53-Lys372me antibodies. To increase the specificity of ChIP, the anti-p53-Lys372me immunoprecipitates were eluted from the beads with 1% SDS, diluted with immunoprecipitation buffer and then subjected to a second round of immunoprecipitation using anti-p53 antibody.
ChIP assay on U2OS and U2OS cells expressing siRNA-Set9 was performed using established methods (Barlev, et al. (2001) supra). Briefly, cells were cross-linked with 1% formaldehyde, neutralized with 0.125 M glycine and harvested by scraping. The chromatin fraction was prepared by incubating the cells in lysis buffer (10 mM Tris pH 8.0, 200 mM NaCl, 10 mM EDTA, 0.5 mM EGTA, 1 mM PMSF). The insoluble fraction was sonicated and subjected to immunoprecipitation with anti-p53-Lys372me serum. […]

U2OS cells = test: Annexin V apoptotic staining after DNA damage; type: cell-based
From the text: This was directly tested by measuring the p53-dependent apoptotic response induced by DNA damage. […] The treatment of Set9-overexpressing cells with Adr further increased the Annexin V staining. […] Furthermore, Set9-mediated regulation of cell cycle and apoptosis was p53-dependent, because in the absence of p53, transfected Set9 was unable to induce p21 gene expression in H1299 (FIG. 4) or apoptosis in Saos-2 cells in response to DNA damage.

p53 in U2OS cells = test: p53 Lys372 methylation and total p53 levels in U2OS cells; type: cell-based
[3] = tested on: p21 gene expression in U2OS cells; test: p21 gene expression by quantitative real-time PCR; type: cell-based, human; conditions: normalized to GAPDH
Procedure: U2OS cells were stably transfected with FLAG-Set9 wild-type, FLAG-Set9 mutant or siRNA against Set9. Non-transfected cells served as control. Cells were mock-treated, or treated with 0.3 μM of 5-fluoro-uracil (5-FU) or adriamycine (Adr) as indicated. p21 (FIG. 3A), BAX (FIG. 3B) and MDM2 (FIG. 3C) gene expression was analyzed by quantitative real-time PCR using primers specific for the coding region. Shown are the relative values normalized to GAPDH signal.
Total RNA was extracted using the TRI reagent (INVITROGEN) according to the manufacturer's instructions. First-strand complementary DNA was synthesized using READY-TO-GO You-Prime First-Strand Beads (Amersham Biosciences, Piscataway, N.J.).
Real-time PCR was performed with the DNA ENGINE OPTICON 2 System (MJ Research, Waltham, Mass.) according to the manufacturer's instructions. The primers for human p21 (Cip1/WAF1′) and GAPDH (GENBANK accession numbers NM_000389 and NP_002037, respectively) were designed using the Primer3 program. […] Fluorescence was measured at the end of the elongation phase at 79° C. Expression levels were calculated as a ratio between p21 and GAPDH signals. […]

[4] = target: T1, Set9 construct composed of residues …; test: cell-based or functional assay

Molecule | intracellular concentration of methylated Lys372-p53 protein [1] | levels of intracellular p53 ([1]; monoclonal p53 antibody) | amount of methylated p53 bound to the p21 promoter [2] | number of cells positively stained for Annexin V (U2OS cells) | total levels of p53 (p53 in U2OS cells) | Lys372 methylation of p53 (p53 in U2OS cells; upon Adr treatment) | p21 expression upon DNA damage [3] | enzymatic activity, methyltransferase assays with 3H-labeled S-adenosyl-L-methionine (AdoMet) [4]
COc1cccc2c1C(=O)c1c(O)c3c(c(O)c1C2=O)C[C@@](O)(C(=O)CO)C[C@@H]3O[C@H]1C[C@H](N)[C@H](O)[C@H](C)O1 [Adr, adriamycine] | increased the intracellular concentration of methylated Lys372-p53 protein | did not increase the levels of intracellular p53 | increased as early as 1.5 hours after DNA damage | increased the number of cells positively stained for Annexin V | – | – | – | –
B1 | – | – | did not exhibit a significant increase in methylated p53 at the p21 promoter | – | decreased the total levels of p53 | decreased Lys372 methylation of p53 | impaired p21 expression upon DNA damage | –
LKSKKGQSTSRHKKLMFKTY [wild-type p53 20-mer] | – | – | – | – | – | – | – | 6 fold
